From article PMC4725365

Tests used:
[1] = target: A1-MAGE-A3 (HLA-A*0101 with the MAGE-A3 peptide …), biotinylated; assay: SPR (single cycle kinetics); conditions: 25 °C; approximately 150 RUs of biotinylated pMHC immobilised onto a CM5 amine chip
[2] = target: A1-Titin (HLA-A*0101 with the Titin peptide …), biotinylated; assay: SPR (single cycle kinetics); conditions: 25 °C; approximately 150 RUs of biotinylated pMHC immobilised onto a CM5 amine chip
[3] = target: A1-Titin (HLA-A*0101 with the Titin peptide ), biotinylated; assay: SPR
[4] = target: A1-MAGE-A3 (HLA-A*0101 with the MAGE-A3 peptide ), biotinylated; assay: SPR

With MAG-IC3 TCR F51T the Kd [1] was 0.0032 µM and the other: t1/2 [1] was 66 min.

MAG-IC3 TCR F51W was tested, and the Kd [2] was 0.172 µM, the other: t1/2 [2] was 1.5 min and the other: t1/2 [1] was 20 min.

MAG-IC3 TCR N97D was tested, and the Kd [2] was 0.916 µM.

MAG-IC3 TCR N97E was tested, and the Kd [2] was 0.743 µM and the other: t1/2 [1] was 14 min.

Work on MAG-IC3 TCR N97Q yielded a Kd [1] of 0.059 µM.

MAG-IC3 TCR R31L gave a Kd [2] of 0.093 µM and a Kd [1] of 0.0134 µM.

MAG-IC3 TCR mutant F51T (β chain) was tested, and the Kd [3] was 0.0976 µM.

In the case of MAG-IC3 TCR mutant F51W (β chain), the Kd [4] is reported as 0.0084 µM.

In the case of MAG-IC3 TCR mutant N97D (β chain), the Kd [4] is reported as 0.0993 µM.

In the case of MAG-IC3 TCR mutant N97E (β chain), the Kd [4] is reported as 0.035 µM.

Substance MAG-IC3 TCR mutant N97Q (β chain) has a Kd [3] of 0.601 µM.

Work on MAG-IC3 TCR mutant R31W (β chain) yielded a Kd [3] of 0.1 µM and a Kd [4] of 0.0062 µM.
